From patent US20230038638A1, “COMPLEMENT FACTOR I-RELATED COMPOSITIONS AND METHODS” (published 2023)

What was measured:
[1] = molecular target: soluble human C3b (human) (UniProt P01024)
human C4b (human) = molecular target: T1, human C4b (human) (UniProt P0C0L4)
T1 sequence: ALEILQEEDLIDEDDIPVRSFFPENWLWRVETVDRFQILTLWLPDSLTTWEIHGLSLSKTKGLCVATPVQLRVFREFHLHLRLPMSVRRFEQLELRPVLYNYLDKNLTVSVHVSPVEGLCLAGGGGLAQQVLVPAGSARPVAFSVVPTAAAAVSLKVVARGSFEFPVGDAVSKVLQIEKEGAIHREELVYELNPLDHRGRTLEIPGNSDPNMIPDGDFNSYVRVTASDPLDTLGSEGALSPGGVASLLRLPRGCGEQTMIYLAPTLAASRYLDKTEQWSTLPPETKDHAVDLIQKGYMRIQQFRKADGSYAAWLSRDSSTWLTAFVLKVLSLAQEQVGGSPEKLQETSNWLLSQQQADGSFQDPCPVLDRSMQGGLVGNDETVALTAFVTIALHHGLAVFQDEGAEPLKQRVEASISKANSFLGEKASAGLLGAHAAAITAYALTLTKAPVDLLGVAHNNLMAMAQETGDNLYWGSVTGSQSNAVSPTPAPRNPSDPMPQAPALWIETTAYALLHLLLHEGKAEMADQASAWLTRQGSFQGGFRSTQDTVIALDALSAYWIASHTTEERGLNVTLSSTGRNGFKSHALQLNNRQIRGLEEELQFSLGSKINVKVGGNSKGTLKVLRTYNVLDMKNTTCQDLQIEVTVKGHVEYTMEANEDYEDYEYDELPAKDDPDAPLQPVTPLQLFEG

Chain of CFI-HSA fusion WT; GGSSGG (SEQ ID NO: 6); CR1(ccp15); fH(ccp2); fH(ccp3); fH(ccp4) (P17927 other isoform, or with tags, fused parts or gaps limits assumed): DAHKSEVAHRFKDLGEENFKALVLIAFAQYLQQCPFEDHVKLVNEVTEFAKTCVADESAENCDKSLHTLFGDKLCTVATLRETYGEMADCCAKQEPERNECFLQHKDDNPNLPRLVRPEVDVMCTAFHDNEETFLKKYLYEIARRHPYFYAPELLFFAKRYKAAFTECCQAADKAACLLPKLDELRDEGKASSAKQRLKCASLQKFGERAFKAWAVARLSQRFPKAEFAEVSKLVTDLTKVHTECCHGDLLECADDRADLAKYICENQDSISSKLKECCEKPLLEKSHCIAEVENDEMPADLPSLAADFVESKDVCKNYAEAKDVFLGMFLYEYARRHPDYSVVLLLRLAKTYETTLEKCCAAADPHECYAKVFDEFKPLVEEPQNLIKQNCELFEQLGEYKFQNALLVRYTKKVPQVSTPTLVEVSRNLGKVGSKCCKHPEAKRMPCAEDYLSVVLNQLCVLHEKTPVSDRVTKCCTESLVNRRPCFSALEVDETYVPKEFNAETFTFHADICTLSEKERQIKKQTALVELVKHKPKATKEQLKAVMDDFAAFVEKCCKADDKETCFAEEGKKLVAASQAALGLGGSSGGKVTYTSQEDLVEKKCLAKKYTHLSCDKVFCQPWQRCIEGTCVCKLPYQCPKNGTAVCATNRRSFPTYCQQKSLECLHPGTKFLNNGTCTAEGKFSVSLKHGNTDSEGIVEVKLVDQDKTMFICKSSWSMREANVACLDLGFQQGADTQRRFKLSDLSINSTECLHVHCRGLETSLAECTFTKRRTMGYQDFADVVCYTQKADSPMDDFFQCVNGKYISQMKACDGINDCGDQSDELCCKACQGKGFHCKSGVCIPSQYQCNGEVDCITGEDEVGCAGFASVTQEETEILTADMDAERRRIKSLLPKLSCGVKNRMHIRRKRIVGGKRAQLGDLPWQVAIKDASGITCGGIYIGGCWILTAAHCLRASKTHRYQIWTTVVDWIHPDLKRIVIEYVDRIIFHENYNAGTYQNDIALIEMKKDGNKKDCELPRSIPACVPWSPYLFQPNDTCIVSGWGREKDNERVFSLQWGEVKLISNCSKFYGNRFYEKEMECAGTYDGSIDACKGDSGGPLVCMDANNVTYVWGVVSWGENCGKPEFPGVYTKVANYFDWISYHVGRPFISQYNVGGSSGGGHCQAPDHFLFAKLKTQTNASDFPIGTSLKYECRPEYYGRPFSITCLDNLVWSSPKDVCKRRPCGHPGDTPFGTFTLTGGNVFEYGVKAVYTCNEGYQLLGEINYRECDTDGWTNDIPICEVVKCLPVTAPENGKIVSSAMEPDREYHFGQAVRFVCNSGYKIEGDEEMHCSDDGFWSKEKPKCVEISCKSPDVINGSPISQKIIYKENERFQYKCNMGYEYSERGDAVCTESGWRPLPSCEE

iC3b Screen Ref Fold (fold of CFI-HSA wild type) [1] | C4b Screen Ref Fold (fold of CFI-HSA wild type) (human C4b (human)) | iC3b Screen Ref Fold (fold of reference) [1] | C4b Screen Ref Fold (fold of reference) (human C4b (human)) | Substance
0.95 | 3.89 | – | – | CFI-HSA K534M (enzyme)
-0.03 | 0 | – | – | CFI-HSA variant I389G (enzyme)
– | – | 0.71 | 0.11 | CFI-HSA variant K458A (enzyme)
– | – | 0.85 | 1.83 | CFI-HSA variant R314A (enzyme)
-0.01 | 0.15 | – | – | CFI-HSA F464P (enzyme)
– | – | 0.29 | 0.95 | CFI-HSA variant N531W (enzyme)
– | – | 0 | -0.07 | CFI-HSA variant G469L; R456N; E457T; K458A (enzyme)
0.73 | 4.05 | – | – | CFI-HSA L307A (enzyme)
1.39 | 0.56 | – | – | CFI-HSA variant N52Q; N159Q (enzyme)
0.56 | 0.67 | – | – | CFI-HSA T407G; Y408L; E457G; N531G (enzyme)
1.15 | 1.47 | – | – | CFI-HSA variant G406A; Y403F (enzyme)
0.04 | 0.07 | – | – | CFI-HSA variant D425K; Y408M; E530F; F537K; P558S (enzyme)
1.24 | 6.79 | – | – | CFI-HSA Y408L; N531G; E461Q; R462K (enzyme)
0.96 | 4.82 | – | – | CFI-HSA E457G; R462K; F464Y (enzyme)
– | – | 0.24 | 0.36 | CFI-HSA variant N531I (enzyme)
1.11 | 4.33 | – | – | CFI-HSA E457G; R462K (enzyme)
1.33 | 2.53 | – | – | CFI-HSA Y408L; E461Q; R462K (enzyme)
1.84 | 0.49 | – | – | CFI-HSA variant D425K; Y408M; E530F; K504R; P558S (enzyme)

iC3b Screen Ref Fold (fold of CFI-HSA wild type) [1] | C4b Screen Ref Fold (fold of CFI-HSA wild type) (human C4b (human)) | iC3b Screen Ref Fold (fold of reference) [1] | C4b Screen Ref Fold (fold of reference) (human C4b (human)) | Substance
0.92 | 2.65 | – | – | CFI-HSA K534S (enzyme)
– | – | 0.04 | 1.28 | CFI-HSA-FH_CCP1-4 fusion, Y408L; N531G; E457G; E461Q; R462K; F464Y; GGSSGG (SEQ ID NO: 6); CCP_1-4 (enzyme)
0.07 | 0.03 | – | – | CFI-HSA variant D425K; Y408M; E530F; F537K (enzyme)
0.19 | 0.27 | – | – | CFI-HSA Y408L; R462K; F464Y (enzyme)
1.49 | 1.96 | – | – | CFI-HSA K534V (enzyme)
– | – | -0.01 | 0.16 | CFI-HSA variant I345G (enzyme)
0.57 | 1.29 | – | – | CFI-HSA P535V (enzyme)
1.06 | 0.11 | – | – | CFI-HSA variant F537K; K504R (enzyme)
– | – | -0.01 | 0.15 | CFI-HSA variant K340G (enzyme)
0.55 | 0.67 | – | – | CFI-HSA Y408L; F464Y (enzyme)
0.24 | 0.45 | – | – | CFI-HSA P535E (enzyme)
0.83 | 0.09 | – | – | CFI-HSA variant Y408M; K504R (enzyme)
0 | 0.31 | – | – | CFI-HSA D506H (enzyme)
– | – | 0.16 | 0.36 | CFI-HSA variant G344K (enzyme)
0.89 | 5.5 | – | – | CFI-HSA Y408L; E457G; R462K; F464Y (enzyme)
– | – | -0.01 | 1.44 | CFI-HSA fusion WT; GGSSGG (SEQ ID NO: 6); CR1(ccp15); fH(ccp2); fH(ccp3); fH(ccp4) (from UniProt P17927) (enzyme)
– | – | 0.75 | 0.68 | CFI-HSA variant G406A; Y408L (enzyme)
– | – | 1.15 | 2.52 | CFI-HSA variant E461N (enzyme)

More lines, now with the values behind:

Substance | iC3b Screen Ref Fold (fold of CFI-HSA wild type) [1] | C4b Screen Ref Fold (fold of CFI-HSA wild type) (human C4b (human)) | iC3b Screen Ref Fold (fold of reference) [1] | C4b Screen Ref Fold (fold of reference) (human C4b (human))
CFI-HSA T407G; N531G (enzyme) | 0.85 | 0.83 | – | –
CFI-HSA variant G344R; Y408L; N531G (enzyme) | – | – | 0.98 | 3.03
CFI-HSA Y408L; N531G; E457G; R462K (enzyme) | 1.29 | 6.12 | – | –
CFI-HSA variant G469L; R456N; K458A; E461G (enzyme) | – | – | 0 | -0.03
CFI-HSA variant Y408M; E530F; F537K; K504R (enzyme) | 0.01 | 0.05 | – | –
CFI-HSA variant Y408S (enzyme) | – | – | 0.32 | -0.05
CFI-HSA variant R388G (enzyme) | 0.22 | 0.18 | – | –
CFI-HSA K534I (enzyme) | 0.83 | 3.03 | – | –
CFI-HSA variant I560V (enzyme) | – | – | 1.31 | 1.27
CFI-HSA P535D (enzyme) | 0.01 | 0.14 | – | –
CFI-HSA variant E461G (enzyme) | – | – | 0.94 | 0.31
CFI-HSA E461Q; R462K; F464Y (enzyme) | 0.59 | 4.92 | – | –
CFI-HSA variant K312A (enzyme) | – | – | 0.84 | 0.09
CFI-HSA Y408L; E461Q; F464Y (enzyme) | 1.51 | 4.83 | – | –
CFI-HSA variant D425K; Y408M; E530F; P558S (enzyme) | 1.53 | 0.07 | – | –
CFI-HSA variant N531R (enzyme) | – | – | 0.75 | 0.58

Substance | iC3b Screen Ref Fold (fold of CFI-HSA wild type) [1] | C4b Screen Ref Fold (fold of CFI-HSA wild type) (human C4b (human)) | iC3b Screen Ref Fold (fold of reference) [1] | C4b Screen Ref Fold (fold of reference) (human C4b (human))
CFI-HSA variant G406A; D425K; E457G; E461Q; N531G (enzyme) | 0.18 | 3.17 | – | –
CFI-HSA variant Y403F; D425K; E457G; N531G (enzyme) | 0.22 | 3.85 | – | –
CFI-HSA D506P (enzyme) | -0.04 | 0.18 | – | –
CFI-HSA variant N531H (enzyme) | – | – | 0.74 | 1.16
CFI-HSA N531G; E461Q; R462K (enzyme) | 2.21 | 6.42 | – | –
CFI-HSA K534P (enzyme) | 0 | 0.11 | – | –
CFI-HSA K534Y (enzyme) | 1.42 | 1.39 | – | –
CFI-HSA K504D; Y408L; N531G (enzyme) | 0.07 | 3.45 | – | –
CFI-HSA D425E (enzyme) | 1.52 | 1.75 | – | –
CFI-HSA P535S (enzyme) | 0.58 | 2.14 | – | –
CFI-HSA E457G; N531G (enzyme) | 0.88 | 6.5 | – | –
CFI-HSA Y408L; N531G; E461Q; F464Y (enzyme) | 1.29 | 5.6 | – | –
CFI-HSA H362T; V463S; R456I; D459W; S343K (enzyme) | -0.02 | 0.04 | – | –
CFI-HSA H362T; R456I; S343R (enzyme) | -0.01 | 0.08 | – | –
CFI-HSA variant T346K; K504D; E530K (enzyme) | – | – | 0.4 | -0.02
